# Measurements reported in patent publication US20180327495A1.
# Molecular target: Trop-2 (EGP-1) (human) (UniProt P09758)
# Assay: cell-based or functional assay
# Chain of Trop-2 (EGP-1) (human) (P09758 27-323): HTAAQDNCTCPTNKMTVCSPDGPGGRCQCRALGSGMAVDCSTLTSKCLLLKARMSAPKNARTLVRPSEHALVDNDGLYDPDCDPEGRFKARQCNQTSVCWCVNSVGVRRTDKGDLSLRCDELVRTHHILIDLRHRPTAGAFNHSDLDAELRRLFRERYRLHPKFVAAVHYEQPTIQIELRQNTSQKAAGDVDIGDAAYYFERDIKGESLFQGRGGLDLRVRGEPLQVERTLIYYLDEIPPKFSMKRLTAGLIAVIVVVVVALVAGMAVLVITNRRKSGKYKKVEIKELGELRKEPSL
substance,measurement,value
"hRS7 (anti-EGP-1 / anti-Trop-2 humanized MAb), unconjugated IgG (antibody)","ADCC, specific lysis (PBMC effectors, effector to target ratio 100:1, antibody at 33.3 nM)",8.5%
